B1: DDX11-3xFlag wild type [human] / endogenous Timeless (HEK 293T) [human (endogenous in HEK 293T)] (parent complex)
chain 1: MANETQKVGAIHFPFPFTPYSIQEDFMAELYRVLEAGKIGIFESPTGTGKSLSLICGALSWLRDFEQKKREEEARLLETGTGPLHDEKDESLCLSSSCEGAAGTPRPAGEPAWVTQFVQKKEERDLVDRLKAEQARRKQREERLQQLQHRVQLKYAAKRLRQEEEERENLLRLSREMLETGPEAERLEQLESGEEELVLAEYESDEEKKVASRVDEDEDDLEEEHITKIYYCSRTHSQLAQFVHEVKKSPFGKDVRLVSLGSRQNLCVNEDVKSLGSVQLINDRCVDMQRSRHEKKKGAEEEKPKRRRQEKQAACPFYNHEQMGLLRDEALAEVKDMEQLLALGKEARACPYYGSRLAIPAAQLVVLPYQMLLHAATRQAAGIRLQDQVVIIDEAHNLIDTITGMHSVEVSGSQLCQAHSQLLQYVERYGKRLKAKNLMYLKQILYLLEKFVAVLGGNIKQNPNTQSLSQTGTELKTINDFLFQSQIDNINLFKVQRYCEKSMISRKLFGFTERYGAVFSSREQPKLAGFQQFLQSLQPRTTEALAAPADESQASTLRPASPLMHIQGFLAALTTANQDGRVILSRQGSLSQSTLKFLLLNPAVHFAQVVKECRAVVIAGGTMQPVSDFRQQLLACAGVEAERVVEFSCGHVIPPDNILPLVICSGISNQPLEFTFQKRELPQMMDEVGRILCNLCGVVPGGVVCFFPSYEYLRQVHAHWEKGGLLGRLAARKKIFQEPKSAHQVEQVLLAYSRCIQACGQERGQVTGALLLSVVGGKMSEGINFSDNLGRCVVMVGMPFPNIRSAELQEKMAYLDQTLPRAPGQAPPGKALVENLCMKAVNQSIGRAIRHQKDFASVVLLDQRYARPPVLAKLPAWIRARVEVKATFGPAIAAVQKFHREKSASS
chain 2: MDLHMMNCELLATCSALGYLEGDTYHKEPDCLESVKDLIRYLRHEDETRDVRQQLGAAQILQSDLLPILTQHHQDKPLFDAVIRLMVNLTQPALLCFGNLPKEPSFRHHFLQVLTYLQAYKEAFASEKAFGVLSETLYELLQLGWEERQEEDNLLIERILLLVRNILHVPADLDQEKKIDDDASAHDQLLWAIHLSGLDDLLLFLASSSAEEQWSLHVLEIVSLMFRDQNPEQLAGVGQGRLAQERSADFAELEVLRQREMAEKKTRALQRGNRHSRFGGSYIVQGLKSIGERDLIFHKGLHNLRNYSSDLGKQPKKVPKRRQAARELSIQRRSALNVRLFLRDFCSEFLENCYNRLMGSVKDHLLREKAQQHDETYYMWALAFFMAFNRAASFRPGLVSETLSVRTFHFIEQNLTNYYEMMLTDRKEAASWARRMHLALKAYQELLATVNEMDISPDEAVRESSRIIKNNIFYVMEYRELFLALFRKFDERCQPRSFLRDLVETTHLFLKMLERFCRSRGNLVVQNKQKKRRKKKKKVLDQAIVSGNVPSSPEEVEAVWPALAEQLQCCAQNSELSMDSVVPFDAASEVPVEEQRAEAMVRIQDCLLAGQAPQALTLLRSAREVWPEGDVFGSQDISPEEEIQLLKQILSAPLPRQQGPEERGAEEEEEEEEEEEEELQVVQVSEKEFNFLDYLKRFACSTVVRAYVLLLRSYQQNSAHTNHCIVKMLHRLAHDLKMEALLFQLSVFCLFNRLLSDPAAGAYKELVTFAKYILGKFFALAAVNQKAFVELLFWKNTAVVREMTEGYGSLDDRSSSRRAPTWSPEEEAHLRELYLANKDVEGQDVVEAILAHLNTVPRTRKQIIHHLVQMGLADSVKDFQRKGTHIVLWTGDQELELQRLFEEFRDSDDVLGHIMKNITAKRSRARIVDKLLALGLVAERRELYKKRQKKLASSILPNGAESLKDFCQEDLEEEENLPEEDSEEEEEGGSEAEQVQGSLVLSNENLGQSLHQEGFSIPLLWLQNCLIRAADDREEDGCSQAVPLVPLTEENEEAMENEQFQQLLRKLGVRPPASGQETFWRIPAKLSPTQLRRAAASLSQPEEEQKLQPELQPKVPGEQGSDEEHCKEHRAQALRALLLAHKKKAGLASPEEEDAVGKEPLKAAPKKRQLLDSDEEQEEDEGRNRAPELGAPGIQKKKRYQIEDDEDD

Variants of: B1
Experiment: co-immuno-precipitation (anti-Flag M2 agarose beads) with quantified Western blot; HEK 293T whole cell extracts, 48 hr post-transfection; three independent experiments; parent: 1; read off a plot
Variant chain 1 E201K, chain 1 Y202A, chain 1 E203K has a ratio to parent of ~0.56. In the case of chain 1 E201K, chain 1 Y202A, the ratio to parent is reported as ~0.48.

Source: paper PMC6179184, “Interaction of the Warsaw breakage syndrome DNA helicase DDX11 with the replication fork-protection factor Timeless promotes sister chromatid cohesion” (PLoS Genetics, 2018)
